Results: the supplement of paper PMC10126150
± gives the standard deviation of the averaged measurements.

Test system: ATP
Experiment: switch fluorescence ratio, 500 uM ATP over buffer (Cy3 cluster intensity, sum of 5 cycles each) (fold (ratio)); higher = stronger signal-on switching upon ATP binding; sequences stand for … in TCGTCGGCAGCGTCAGATGTGTATAAGAGACAGTTTTTTTTTTTTTTTTTTTTTTTTT…TC
Details: aptamer strand: ATP DNA aptamer (quencher-CACCTGGGGGAGTATTGCGGAGGAAGG + anchor), 100 nM annealed; ATP concentration: 500 uM
Summary of the method: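 For every switch-domain sequence, the fluorescence ratio is the mean of per-cluster values, each being summed target-cycle Cy3 intensity over summed buffer-cycle Cy3 intensity. Clusters outside 100-1000 RFU were excluded. On a modified Illumina MiSeq flow-cell, the Cy3-labelled switching-strand clusters were annealed to 100 nM quencher-labelled ATP aptamer, imaged in selection buffer and then after 15 min with 500 uM ATP at 22 °C. Five such cycles were run, with NaOH stripping and re-annealing between them.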
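Also: ATP exposure 15 min at 22 °C before imaging.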

Row | Sequence | switch fluorescence ratio
1 | AGTAACGGTA | 1.04 ± 0.012
2 | AGTAACGGTG | 1.034 ± 0.0019
3 | AGTAAGATAA | 0.986 ± 0.058
4 | AGTAAGCGAC | 1.063 ± 0.0014
5 | AGTAAGGGCG | 0.992 ± 0.039
6 | AGTAAGGGGT | 0.982 ± 0.021
7 | AGTAAGGTGT | 1.13 ± 0.095
8 | AGTAATAGGA | 1.03 ± 0.076
9 | AGTACAATGC | 1.47 ± 0.18
10 | AGTACCAATG | 1.03 ± 0.039
11 | AGTACGATTG | 1 ± 0.023
12 | AGTACGGATA | 1.03 ± 0.074
13 | AGTACGGTGC | 1.02 ± 0.017
14 | AGTACGGTGG | 0.985 ± 0.064
15 | AGTACGTTAT | 1.14 ± 0.026
16 | AGTACGTTGG | 0.966 ± 0.034
17 | AGTACTAACT | 1.05 ± 0.048
18 | AGTACTGACC | 1.23 ± 0.037
19 | AGTAGAATGG | 1.001 ± 0.0004
20 | AGTAGACGAC | 1.03 ± 0.042
21 | AGTAGAGAAT | 1.04 ± 0.017
22 | AGTAGAGGTT | 1.008 ± 0.0064
23 | AGTAGCTCTC | 1.02 ± 0.013

Row | Sequence | switch fluorescence ratio
24 | AGTAGGGGTA | 0.974 ± 0.039
25 | AGTAGGGTTA | 0.989 ± 0.029
26 | AGTAGTAAAC | 1.02 ± 0.016
27 | AGTAGTTGGC | 1.01 ± 0.12
28 | AGTATCCAAA | 0.999 ± 0.027
29 | AGTATCTTCG | 0.9923 ± 0.0027
30 | AGTATGATTT | 0.98 ± 0.027
31 | AGTATGTCGA | 1.01 ± 0.015
32 | AGTATGTCGT | 1.03 ± 0.024
33 | AGTATGTGGG | 0.996 ± 0.048
34 | AGTATTCGCT | 0.975 ± 0.017
35 | AGTATTGCTC | 1.01 ± 0.024
36 | AGTATTTTG | 0.96 ± 0.013
37 | AGTCAAAGGA | 1.012 ± 0.0051
38 | AGTCAACTTG | 1.01 ± 0.053
39 | AGTCAGAAAT | 1 ± 0.022
40 | AGTCAGGCGA | 1.01 ± 0.078
41 | AGTCATAAAA | 1.01 ± 0.045
42 | AGTCCGTCGT | 1.026 ± 0.0068
43 | AGTCCTTTGT | 1.02 ± 0.025
44 | AGTCGCCCTG | 0.985 ± 0.05
45 | AGTCGCGCGC | 0.989 ± 0.011
46 | AGTCGGACGG | 1.01 ± 0.034

Row | Sequence | switch fluorescence ratio
47 | AGTCGGATTC | 1.09 ± 0.076
48 | AGTCGGGAGA | 1.01 ± 0.015
49 | AGTCGTGTCT | 0.967 ± 0.012
50 | AGTCGTTGAG | 1.02 ± 0.033
51 | AGTCGTTTTT | 0.98 ± 0.026
52 | AGTCTAAGTG | 0.956 ± 0.021
53 | AGTCTGAGAC | 1.013 ± 0.0089
54 | AGTCTGGACT | 0.988 ± 0.025
55 | AGTCTGGGGC | 0.942 ± 0.023
56 | AGTCTGGTGC | 1.04 ± 0.032
57 | AGTGACAACA | 1.007 ± 0.0021
58 | AGTGAGGATC | 0.993 ± 0.032
59 | AGTGAGTAAC | 0.9811 ± 0.0061
60 | AGTGAGTGCT | 0.9751 ± 0.0059
61 | AGTGCAAGAT | 1.08 ± 0.028
62 | AGTGCATTGG | 1 ± 0.024
63 | AGTGCGTGGG | 1.002 ± 0.0061
64 | AGTGGACATC | 0.99098 ± 0.00034
65 | AGTGGACGAC | 0.9912 ± 0.0079
66 | AGTGGAGACG | 1.03 ± 0.012
67 | AGTGGAGCTG | 1.02 ± 0.038
68 | AGTGGATTCT | 1.004 ± 0.0022
69 | AGTGGATTGG | 1.01 ± 0.045

Row | Sequence | switch fluorescence ratio
70 | AGTGGCCCCG | 1 ± 0.011
71 | AGTGGCCGCG | 1.02 ± 0.016
72 | AGTGGGGAGA | 1.02 ± 0.035
73 | AGTGGGGATG | 1.01 ± 0.013
74 | AGTGGGGGAG | 1.002 ± 0.0087
75 | AGTGGGGGTG | 1.03 ± 0.043
76 | AGTGGGGTCA | 0.989 ± 0.021
77 | AGTGGGTGTT | 1.01 ± 0.045
78 | AGTGGGTTTC | 0.9697 ± 0.0026
79 | AGTGGTAAAG | 1.012 ± 0.0029
80 | AGTGGTGGCT | 1.04 ± 0.018
81 | AGTGGTGTGG | 0.993 ± 0.044
82 | AGTGGTTCGG | 0.993 ± 0.015
83 | AGTGGTTTGT | 0.949 ± 0.017
84 | AGTGTAATTT | 0.973 ± 0.02
85 | AGTGTACCGG | 0.997 ± 0.01
86 | AGTGTATATG | 1.1 ± 0.099
87 | AGTGTCTATT | 0.981 ± 0.0055
88 | AGTGTGAAGG | 1.003 ± 0.0099
89 | AGTGTGAGTT | 1.025 ± 0.01
90 | AGTGTGGATT | 1.03 ± 0.015
91 | AGTGTGGCCA | 1.02 ± 0.016
92 | AGTGTGGTCT | 1.02 ± 0.045

Row | Sequence | switch fluorescence ratio
93 | AGTGTGTTCT | 1.02 ± 0.021
94 | AGTGTGTTGC | 1.023 ± 0.0095
95 | AGTGTTACGT | 0.989 ± 0.042
96 | AGTGTTATTG | 0.976 ± 0.028
97 | AGTGTTGCCG | 0.965 ± 0.069
98 | AGTGTTGGGG | 0.998 ± 0.017
99 | AGTGTTGTGG | 0.9904 ± 0.0021
100 | AGTGTTTAAG | 1.036 ± 0.009
101 | AGTGTTTCTG | 0.973 ± 0.049
102 | AGTTAACGGT | 1.18 ± 0.19
103 | AGTTAACTTT | 1.02 ± 0.028
104 | AGTTAAGGGA | 0.991 ± 0.062
105 | AGTTAATGAC | 0.997 ± 0.013
106 | AGTTAATTTG | 0.9823 ± 0.0097
107 | AGTTACGAAA | 1.11 ± 0.025
108 | AGTTAGCTT | 1.02 ± 0.072
109 | AGTTAGGAAA | 1.02 ± 0.032
110 | AGTTAGGGTT | 0.999 ± 0.039
111 | AGTTAGTAGT | 0.981 ± 0.021
112 | AGTTAGTGGT | 0.978 ± 0.023
113 | AGTTATAAAG | 0.986 ± 0.037
114 | AGTTATGTTG | 0.995 ± 0.021
115 | AGTTATTTGG | 1 ± 0.0047

Row | Sequence | switch fluorescence ratio
116 | AGTTCATTGG | 1.04 ± 0.059
117 | AGTTCCATCG | 1.05 ± 0.047
118 | AGTTCCGAGG | 1.12 ± 0.14
119 | AGTTCGGTTT | 0.9581 ± 0.0039
120 | AGTTCTAGGG | 0.971 ± 0.031
121 | AGTTGAACCC | 0.9872 ± 0.0016
122 | AGTTGATTGT | 0.9895 ± 0.0076
123 | AGTTGCGGTT | 1.002 ± 0.0018
124 | AGTTGCTCCT | 0.986 ± 0.024
125 | AGTTGCTTGT | 1.01 ± 0.036
126 | AGTTGGAGCG | 1.026 ± 0.0041
127 | AGTTGGAGCT | 0.95964 ± 9.2e-05
128 | AGTTGGCAAT | 1.24 ± 0.061
129 | AGTTGGCGGA | 0.999 ± 0.024
130 | AGTTGGCTTT | 1.018 ± 0.008
131 | AGTTGGGATC | 1.036 ± 0.008
132 | AGTTGGGGAA | 0.983 ± 0.031
133 | AGTTGGGGAC | 1.012 ± 0.0071
134 | AGTTGGTATT | 0.998 ± 0.015
135 | AGTTGGTCTA | 1 ± 0.017
136 | AGTTGTGGAG | 0.986 ± 0.018
137 | AGTTGTGTGG | 1.02 ± 0.023
138 | AGTTTAGGGT | 1.03 ± 0.054

Row | Sequence | switch fluorescence ratio
139 | AGTTTATCTG | 1.01 ± 0.04
140 | AGTTTCCTAG | 0.971 ± 0.022
141 | AGTTTCGGGA | 1 ± 0.033
142 | AGTTTCGGTC | 1 ± 0.028
143 | AGTTTCTTAG | 1.015 ± 0.0019
144 | AGTTTGCTAG | 0.994 ± 0.034
145 | AGTTTGCTTG | 0.993 ± 0.025
146 | AGTTTGGACA | 0.997 ± 0.015
147 | AGTTTGGGCC | 1.017 ± 0.0059
148 | AGTTTGGTCA | 0.98 ± 0.021
149 | AGTTTTCAAG | 1 ± 0.026
150 | AGTTTTGAAG | 0.9906 ± 0.0096
151 | AGTTTTGAG | 0.9928 ± 0.0097
152 | AGTTTTGAGG | 1.001 ± 0.0016
153 | AGTTTTGCGT | 1.01 ± 0.034
154 | AGTTTTGGGT | 0.967 ± 0.02
155 | AGTTTTTAAT | 0.999 ± 0.018
156 | AGTTTTTATT | 1.03 ± 0.015
157 | AGTTTTTTAT | 1 ± 0.022
